Test results: patent US20070166314A1 (AstraZeneca / MedImmune, published 2007)

Experiments:
[1] = target: T1, EphA2-Fc (extracellular domain of human EphA2 linked to human IgG1 constant region) (human, UniProt P29317 24-537); assay: competitive ELISA on EphA2-Fc; competitor: labeled EA2; x axis is the ratio of unlabeled to labeled antibody
T1 construct: extracellular domain; Used as immunogen, ELISA antigen and BIACORE ligand; not shown: human IgG1 constant region
Text: Supernatants from bulk culture hybridomas were screened for immunoreactivity against EphA2 (Table 6, column 4) using standard molecular biological techniques (e.g., ELISA immunoassay). Supernatants were further screened for the ability to inhibit an EphA2 monoclonal antibody (EA2; ATCC deposit no. PTA-4380; see co-pending U.S. patent application Ser. No. 10/436,783, entitled “EphA2 Agonistic Monoclonal Antibodies and Methods of Use Thereof” filed May 12, 2003) from binding to EphA2. […] Both antibodies could decrease the amount of labeled EA2 binding to EphA2-Fc with increasing concentrations of unlabeled antibody added. Additionally, many of the other antibodies could inhibit EA2 binding to EphA2 as well (Table 6, column 3).

[2] = target: T2, EphA2 on cells (MDA-MB-231, MCF-10A, MCF-7 transfected with human EphA2) (human, UniProt P29317 24-976); assay: immunofluorescence, 10 µg/ml at 4 C, MDA-MB-231 and MCF-10A cells
T2 construct: whole, on cells; MDA-MB-231 and MCF-10A carry endogenous EphA2 and no species is stated for them
T2 sequence (P29317 24-976): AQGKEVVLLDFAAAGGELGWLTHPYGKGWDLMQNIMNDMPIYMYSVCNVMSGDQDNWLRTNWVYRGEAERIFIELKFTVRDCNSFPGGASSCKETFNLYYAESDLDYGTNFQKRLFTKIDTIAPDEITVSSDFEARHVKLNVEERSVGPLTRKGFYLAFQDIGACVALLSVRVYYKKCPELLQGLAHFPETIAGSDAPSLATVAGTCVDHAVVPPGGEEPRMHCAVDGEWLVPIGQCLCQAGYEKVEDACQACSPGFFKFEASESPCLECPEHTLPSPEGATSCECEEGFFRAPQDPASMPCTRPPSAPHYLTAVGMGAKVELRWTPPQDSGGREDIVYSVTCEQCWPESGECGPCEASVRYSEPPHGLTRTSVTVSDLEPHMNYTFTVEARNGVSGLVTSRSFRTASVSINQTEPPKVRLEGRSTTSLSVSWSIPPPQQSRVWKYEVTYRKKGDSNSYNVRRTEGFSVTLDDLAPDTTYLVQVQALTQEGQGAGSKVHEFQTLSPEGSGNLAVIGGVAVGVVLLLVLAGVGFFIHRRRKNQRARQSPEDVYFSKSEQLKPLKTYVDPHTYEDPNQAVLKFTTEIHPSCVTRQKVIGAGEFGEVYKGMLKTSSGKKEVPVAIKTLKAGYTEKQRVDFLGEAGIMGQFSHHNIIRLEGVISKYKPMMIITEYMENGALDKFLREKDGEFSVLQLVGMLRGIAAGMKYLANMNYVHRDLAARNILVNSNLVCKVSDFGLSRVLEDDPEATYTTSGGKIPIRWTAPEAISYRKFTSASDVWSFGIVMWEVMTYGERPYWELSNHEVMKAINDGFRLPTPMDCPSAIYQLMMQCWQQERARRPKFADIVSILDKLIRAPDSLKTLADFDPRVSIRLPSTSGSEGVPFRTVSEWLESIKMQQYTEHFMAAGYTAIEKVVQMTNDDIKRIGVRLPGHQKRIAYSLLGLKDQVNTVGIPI
Description: The epitopes of EphA2 antibodies were characterized. […] EA2 preferentially binds EphA2 on transformed cells (FIG. 16D). […] Treatment of non-transformed MCF-10A cells with 4 mM EGTA for 20 min. dissociated the cells. EA2 bound EphA2 on the EGTA dissociated cells but not the untreated cells (FIGS. 17A-17B).

[3] = target: T1, EphA2-Fc (extracellular domain of human …); assay: BIACORE, EphA2-Fc immobilized on a CM5 chip, double-referenced; undiluted hybridoma supernatant
Description: EphA2-Fc was immobilize to a surface on a CM5 sensorchip using a standard amine (70 μl of a 1:1 mix of NHS/EDC) coupling chemistry. Briefly, a 400 nM solution of EphA2-Fc in 10 mM NaOAc, pH4, was then injected over the activated surface to a density of 1000-1100 RU's. Unused reactive esters were subsequently “capped” with a 70 μinjection of 1M Et-NH2. Similarly, an activated and “capped” control surface was prepared on the same sensor chip without protein to serve as a reference surface.
A 250 μl injection of each of the EphA2 hybridoma supernatants was made over both the EphA2-Fc and control surfaces, and the binding responses were recorded. These supernatants were used undiluted. Following each injection, at least 10 min. of dissociation phase data was collected. Purified EphA2 monoclonal antibody EA2 was prepared to serve as a positive control (at 1 μg, 5 μg and 25 μg per 250 μl of growth medium). […] Control injections of growth medium across these surfaces were also made. Following each binding cycle, the EphA2-Fc surface was regenerated with a single 1 min. pulse (injection) of 1M NaCl-50 mM NaOH.

T1 sequence (P29317 24-537): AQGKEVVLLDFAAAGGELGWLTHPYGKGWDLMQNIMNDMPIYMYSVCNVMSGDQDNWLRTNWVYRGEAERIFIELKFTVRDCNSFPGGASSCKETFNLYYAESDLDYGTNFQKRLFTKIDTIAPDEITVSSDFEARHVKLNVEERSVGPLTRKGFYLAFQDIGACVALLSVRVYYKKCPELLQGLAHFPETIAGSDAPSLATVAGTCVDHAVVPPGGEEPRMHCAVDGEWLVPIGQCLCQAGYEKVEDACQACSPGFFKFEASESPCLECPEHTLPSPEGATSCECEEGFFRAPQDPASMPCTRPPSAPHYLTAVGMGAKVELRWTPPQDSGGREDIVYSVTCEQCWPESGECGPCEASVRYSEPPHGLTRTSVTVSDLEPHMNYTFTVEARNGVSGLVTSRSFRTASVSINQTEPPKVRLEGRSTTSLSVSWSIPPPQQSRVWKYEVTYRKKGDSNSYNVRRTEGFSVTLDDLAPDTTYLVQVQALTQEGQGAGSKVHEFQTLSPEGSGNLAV

| Binder | binding result [1] | binding result [2] | binding result [3] |
| --- | --- | --- | --- |
| Eph099B-208.261 (ATCC PTA-4573) (antibody, V domains shown, Mouse hybridoma antibody (SJL mice)) VH: QVQLQQPGAELVKPGASVKLSCKASGYTFTSYWMHWVKQRPGQGLEWIGMIHPNSGSTNYNEKFKSKATLTVDKSSSTAYMRLSSLTSEDSAVYYCARGGNMVGGGYWGQGTTLTVSS VL: QIVLTQSPALMSASPGEKVTMTCSASSSVSYMYWYQQKPRSSPKPWIYLTTNLASGVPARFSGSGSGTSYSLTISSMEAEDAATYYCQQWSSNPFTFGSGTKLEIR | binds |  |  |
| Eph099B-233.152 (ATCC PTA-5194) (antibody, V domains shown, Mouse hybridoma antibody (SJL mice); detected with anti-mouse IgG) VH: EVKLVESGGGLVQPGGSLSLSCAASGFTFTDYSMNWVRQPPGKALEWLGFIRNKANDYTTEYSASVKGRFTISRDNSQSILYLQMNALRAEDSATYYCVRYPRYHAMDSWGQGTSVTVSS VL: DIVLTQSPATLSVTPGDSVNLSCRASQSISNNLHWYQQKSHESPRLLIKYVFQSISGIPSRFSGSGSGTDFTLSINSVETEDFGMYFCQQSNSWPLTFGAGTKLELK |  | binds | binds |
